Assay: soluble on expression in E. coli; label from the status in PepcDB or PDB records

Sequence	soluble on expression in E. coli
MSLEFLQRDQAPLTAEEWEQIDKTAYEVFKSTVVCRKFMPVVGPFGAGHQVVSYDVLYGVEPGVCEVKPGQEYKVCEPVRTGERKHVPVPTLYKDFVISWRDLEHWRQFNLPVDTTGVAAAASSLAVAEDKLILFGNQEMGIEGFLTAKGTLREELSDWEKVGNAFQDVVKGISRLVEKGFYTNYYLIVNPKRYFLLNRIHDNTGLLELEQIKKVVKEVYQTPIIPEDIVLLVSASPANFDLAIALDVNVAFVETSNMNHTFRVMEMVVPRIKRPEAILIFSSEGHHHHHH	not soluble
MALKGEGLQGLLGRGEARLGVGGEEAFQVKGGLLAEPRHGRMGSPVGVQGDLARGVGEGVLPGEHPVEDDPGGVDVSLGARGQAPDELGGQVGGGAQEKGLLETLLGGAREVKVQEAGLPGVHQDVLGLHVPVDQALFVHVGEGEEELVEDPHRLGKRGAFPHPAAELLPRGVGQEEGGAFLQVQGLEDGVEVGVGEPSPHPKLPVPAGAGLRGEELEGVGGAEGVKGQVDPGQGPAGQGPHHPVAAREGFAHQAHRPHYTLRKPGYHGPMRGLVLSGGGARGFAHIGALEVFVEAGLDFEVVAGASMGAIVGALFAAGRSPQEILEIARNTPWLGILGFSFREALFSRGRLRRYLAEHLPQDFADLKRRLVVTAVEVRSGRVVYLFQGDLVSAVLASAAHPLLLRPVRREGLLLFDGGVLDNLPVDAARFLGAEEVWAVDVTPERSVEKPPEGVLGLALRAVDLMQHHLTASRMALYAPEVYLRPELGEVAVQDFLRLEEAVEAGRKAAKRFLESRVGEV	soluble
MGRSSRKDEILQAALACFSEHGVDATTIEMIRDRSGASIGSLYHHFGNKERIHGELYLAGIGQYAALLEAGFARARSAEETVRLLVTSYIDWVVANPDWARFILHSRGRVEAGELGERLRADNQAHFARIHAALAGYRAEGLFREMPDDCFASVVIGPAHDLARQWLAGRTRVALADCRELLAQVAWDSVRAA	not soluble
MQIQTPDWVKHAVFYQIFPDRFARSKQPRKRLLQEARWEDWDSMPTLQGYKGGDLWGIMEDLDYIQNLGINAIYFTPIFQSASNHRYHTHDYYQVDPMLGGNEAFKELLDAAHQRNIKVVLDGVFNHSSRGFFFFHDVLENGPHSPWVNWFKIEGWPLSPYNGEFPANYVGWAGNRALPEFNHDNPEVREYIMEIAEYWLKFGIDGWRLDVPFEIKTPGFWQEFRDRTKAINPEAYIVGEVWGDSRQWLDGTQFDGVMNYLFAGPTIAFAAGDRVVLEQVQSRDYQPYPPLFAAEYATKIQEVLQLYPWEIQLTQLNLLASHDTARLMTIAGGDIASVELSTLLLLTFPGAPSIYYGDEVGLPGGIDPDSRRGFPLEANWNQEIFNTHRQLITIRQTYPALRTGDYQVLYAQGQLYLFARTLGTEELIIAINAGTSSATANVDVASLHTQPNKLLYGTAEAEWNGEEGTQQLSLTLPARSGCILGTGD	soluble
MKDKDLLVLAAKAADDKRAEDMVVLNMQGISPIADYFIICHGNSDKQVQAIAREIKAKAHEFQIDVQRMEGFDEARWVLVDLGDVVAHVFHKDERNHYNLERLWGDVPREDITEELGQLEHHHHHH	not soluble
LSNLPRVKHTLVPPPFAHAHEQVAASGPVINEFEMRIIEKEVQLDEDAYLQAMTFDGSIPGPLMIVHEGDYVELTLINPPENTMPHNIDFHAATGALGGGGLTLINPGEKVVLRFKATRAGAFVYHCAPGGPMIPWHVVSGMAGCIMVLPRDGLKDHEGKPVRYDTVYYIGESDHYIPKDEDGTYMRFSDPSEGYEDMVAVMDTLIPSHIVFNGAVGALTGEGALKAKVGDNVLFVHSQPNRDSRPALIGGHGDLVWETGKFHNAPERDLETWFIRGGTAGAALYKFLQPGVYAYVNHNLIEAVHKGATAHVLVEGEWDNDLMEQVVAPVGLTG	soluble
MEESSAAKIQLLKEFKFEKILKDDTKSKIITLYGKIRNEVALLLLEKTAFDLNTIKLDQLATFLQDTKLVENNDVFHWFLSTNFQDCSTLPSVKSTLIWPASETHVYKYSSQKKPMVCETPLMYLKVTKPFIETQRGPQIQWVENILTHKAEAERIVVEDPDPLNGFIVIPDLKWDRQTMSALNLMAIVHATDIASIRDLKYKHIPLLENIRNKVLTEVPKQFSVDKNQLKMFVHYLPSYYHLHVHILHVDHETGDGSAVGRAILLDDVIDRLRNSPDGLENVNITFNIGEQHFLFQPLTNMNA	soluble
MLKKYTRYSNFRLISQIQFQRHIDIFHAITYDNIDGLVAAFVRNEPFDIKDKNGNTPLHLAAKLNRRLLCRAVCVYAAGLDLWNSKNNDGKTPIEMTDDANIKRDLQSISTSRSSVDSHHMAYNKLLIEKKINENEEQNQNQKVILSLDGGGLRVVLQCAILLAVERELGEPLRNRIHWIAGTSCGGIMASSIGVGIDLADALRLYIIIRKRIFGGNNQKFPKHSALGIETCLQEVMGSKTLMSKCTAHRLVVTTAKVTLAPPQLVLFRSYAPRIDSKEFEQLGYFNPNKILLWKAIRCTTAAPTYFPSFNGMADGALFCNNPCIMVMTEFAKLKKIENYRGKNNTDEIGCVISVGTGIEPSYPINGIDINLTSGLTGITGNWREIIENTKNLITVFLYQCTSSHNVHVGQSREWCHSMQVPFFRFSPHLAAPFELDNCKIEDITNAMFDNEVYIRTEIKQHISDLCRLLKSMPRNTEPCNYSKITGGKGSKVGSPKSDKK	not soluble
MGSDKIHHHHHHMPNQPLIFDTAIAKDKPENIRHPHNACPFCDPGQLTDIIAQDADRIWLLNKFPTLQATWQTIVIEAARHDGDIATYSSAQNRAVFTFALKHWQATIASGRFKSVLCYKNFGPHSGGSLRHPHMQIVGLMAADGYANVTAANLTGYSVLAVDQVQVTVSDRPIMGFVEINVAAPATAIAPLADAVQQVVQYTLNTYFHGQCDSYNLFFYPRDDQIVAKVVPLFNVSPYYIGYRLAQADTPKRMRAIAEEIRQQFERSNLAHSN	not soluble
MSLKDGTFQIAIFSDMHFGQYESTTGPEQDRNSVEVLNKVLDYDTPDLVVLNGDLINGDSTWKHNSTHYIDMIVEPMVNRSLTWASTYGNHDHNYNINGDDILVREQMWPGARTQKMVNKTRSGTTNYYLPVYPSDCSNTSDCSPQMILWFFDSRGGNYYQGSWQENWVDQSVVDWFNETSTELTSKHNKTIPSLAFVHVPPNATVALQTELGIRKNNQPGINDDPPVPQQGYGWCADGTPTYDCPYGGQDIPFMEALVTIPGIIGLFYGHDHGNTWCYRWDTKLDGMDIEGNGIHLCYGQHSGYGGYGDWIRGAREIVVTEDMLEKNEVETYIRLESGDVVGKVMLNSTYNEGHHHHHH	not soluble
MRFIHTSDWHLGKSLEGHSRIEEQAKFCEEFIKIVESNEIDMVIIAGDVYDTSNPPAQAEKLFYQTVSRLANNGQRCVLIISGNHDNPERLSAITPLAHEQGILIYGYPLSATIEAKYKGFEITYATQGCTKLNINGENIVVATLPYPSEKRLNEVFSSEDEFEKQKNYSEKVGDIFRSLEENFRSDTINIAVSHIFVIGGESTESERPIQLGGSFLVERKDLPEKAQYTALGHLHKQQKASERLNAYYSGSPLQYSKDERAYTKGAYIVDIKAGEKPIIEDVYFNNYKPIEVFKCNGIEEALDICEQNQDREIWSYFEINTDEIISQNEIKKMKELLKDIIEIKPIITSCYEQESVDIKEKSMAELFREFYSFSKGVEPKGELMDLFLDIISEEGESADETN	not soluble
QVAKNPAPQAVEQAQSSSSLPAPSFADELDPVPGQQQASAKTITVTTDVLTLSIDTVGGDVVHADLNQYSAELDSSDPFVLLKDTQGHQFIAQSGLVGPQGIDLSSSNRPHYNVSADSFTLADGQDELRVPMTFTANGIEYTKTYVLKRGSYALNVEYDVANNSGNNATFGMYAHLRQNLMDAGGSITMPTYRGGAYSTEDTRYKKYSFEDMQDRNLSINLADGQGWAAMIQHYFAAAWIPRNEPGTNLYTRVIGNLGDIGVRMPNKTIATGDQAKFEATLWVGPKLQQEMAAVAPNLDLVVDYGWLWFIAKPLHS	not soluble
MSLDVDSKTLIHAGKLIDGKSDQVQSRISIVIDGNIISDIKKGFISSNDFEDYIDLRDHTVLPGLMDMHVHFGQEYQSKAQAPIKVEREMQAILATQHAYVTFKSGFTTVRQVGDSGLVAISLRDAINSGKLAGPRIFAAGKTIATTGGHADPTNGKAVDDYDYPVPEQGVVNGPYEVYAAVRQRYKDGADGIKITVTGGVLSVAKSGQNPQFTQEEVDAVVSAAKDYGMWVAVHAHGAEGMKRAIKAGVDSIEHGTFMDLEAMDLMIENGTYYVPTISAGEFVAEKSKIDNFFPEIVRPKAASVGPQISDTFRKAYEKGVKIAFGTDAGVQKHGTNWKEFVYMVENGMPAMKAIQSATMETAKLLRIEDKLGSIESGKLADLIAVKGNPIEDISVLENVDVVIKDGLLYEGHHHHHH	soluble
